The values that follow come from paper PMC10457321, “Architecture of the Heme-translocating CcmABCD/E complex required for Cytochrome c maturation” (Nature Communications, 2023).

Broadly, the stoichiometry N is a count of units in the complex or per binding partner.

Data set [1] deals with the molecule itself. Description: cryo-EM structure; single-particle analysis of the co-expressed, co-purified E154Q^A variant complex in DDM, no ATP added, closed state; Ccm(E154QAB)2CD at 3.94 A.
Data set [2] deals with the molecule itself. In words: cryo-EM structure; single-particle analysis of the co-expressed, co-purified E154Q^A variant complex in GDN with 2.5 mM ATP added, closed state; Ccm(E154QAB)2CD with ATP at 3.62 A.
Data set [3] has as its target T1, Ccm(ABCD)2 heterooctameric heme translocation complex (Escherichia coli, UniProt P33931 1-207; P0ABL8 1-220; P0ABM1 1-245; P0ABM5 1-69).
T1 construct: CcmA of Escherichia coli, as m1; CcmB of Escherichia coli, as m2; CcmC of Escherichia coli, as m3; CcmD of Escherichia coli, as m4; Nucleotide-free, inward-open state; C2-symmetric heterooctamer; Used as the target of CcmE; also called CcmABCD complex; source: GDN; copies: 2 + 2 + 2 + 2
T1 sequence 1: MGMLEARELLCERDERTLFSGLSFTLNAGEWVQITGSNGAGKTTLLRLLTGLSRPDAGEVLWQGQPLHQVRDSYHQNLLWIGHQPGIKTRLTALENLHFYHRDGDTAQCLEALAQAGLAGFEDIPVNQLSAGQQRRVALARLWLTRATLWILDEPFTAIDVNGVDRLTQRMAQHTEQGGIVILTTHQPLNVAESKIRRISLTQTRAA
T1 sequence 2: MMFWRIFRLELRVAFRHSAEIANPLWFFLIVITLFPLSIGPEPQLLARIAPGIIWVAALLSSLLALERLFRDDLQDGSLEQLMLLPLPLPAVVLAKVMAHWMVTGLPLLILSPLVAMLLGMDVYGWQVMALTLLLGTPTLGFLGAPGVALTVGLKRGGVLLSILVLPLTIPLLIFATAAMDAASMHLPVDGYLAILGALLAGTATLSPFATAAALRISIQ
T1 sequence 3: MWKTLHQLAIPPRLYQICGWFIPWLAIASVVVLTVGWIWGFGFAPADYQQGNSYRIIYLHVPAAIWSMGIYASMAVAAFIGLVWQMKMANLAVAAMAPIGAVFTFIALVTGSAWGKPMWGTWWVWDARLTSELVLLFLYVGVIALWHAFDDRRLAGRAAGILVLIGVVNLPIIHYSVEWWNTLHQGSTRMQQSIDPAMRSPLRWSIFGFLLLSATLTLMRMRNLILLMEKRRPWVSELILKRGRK
T1 sequence 4: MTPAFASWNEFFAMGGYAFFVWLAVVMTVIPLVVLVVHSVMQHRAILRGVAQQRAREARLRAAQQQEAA
In words: cryo-EM structure; single-particle analysis of the co-expressed, co-purified wild-type CcmABCDE sample in GDN, nucleotide-free, inward-open state; classes Ccm(ABCD)2 at 3.47 A and Ccm(ABCD)2E at 3.81 A; 20 mM Tris/HCl pH 7.5, 150 mM NaCl. The note with it: both partners purified.

B1: CcmB, transmembrane subunit of the core ABC transporter CcmAB (natural protein, Escherichia coli)
chain: MMFWRIFRLELRVAFRHSAEIANPLWFFLIVITLFPLSIGPEPQLLARIAPGIIWVAALLSSLLALERLFRDDLQDGSLEQLMLLPLPLPAVVLAKVMAHWMVTGLPLLILSPLVAMLLGMDVYGWQVMALTLLLGTPTLGFLGAPGVALTVGLKRGGVLLSILVLPLTIPLLIFATAAMDAASMHLPVDGYLAILGALLAGTATLSPFATAAALRISIQ
notes: CcmB of Escherichia coli, integral membrane protein with six transmembrane helices, expressed from the ccm operon amplified from pEC86; Expressed from the cloned ccm operon; no truncation is described; source: DDM or GDN
On to B1, for which the “stoichiometry N” value in data set [1] turned out to be 2.

B2: CcmA E154Q variant with N-terminal StrepTag(II) (natural protein, Escherichia coli)
chain: MGMLEARELLCERDERTLFSGLSFTLNAGEWVQITGSNGAGKTTLLRLLTGLSRPDAGEVLWQGQPLHQVRDSYHQNLLWIGHQPGIKTRLTALENLHFYHRDGDTAQCLEALAQAGLAGFEDIPVNQLSAGQQRRVALARLWLTRATLWILDQPFTAIDVNGVDRLTQRMAQHTEQGGIVILTTHQPLNVAESKIRRISLTQTRAA
notes: CcmA of Escherichia coli with the catalytic glutamate of the switch II region (Walker B motif) replaced; Same construct as m1 apart from E154Q; also called E154Q^A variant; ^E154QA; source: DDM or GDN
B2: the “stoichiometry N” value in data set [2] is 2.

B3: CcmE, heme chaperone (natural protein, Escherichia coli)
chain: MNIRRKNRLWIACAVLAGLALTIGLVLYALRSNIDLFYTPGEILYGKRETQQMPEVGQRLRVGGMVMPGSVQRDPNSLKVTFTIYDAEGSVDVSYEGILPDLFREGQGVVVQGELEKGNHILAKEVLAKHDENYTPPEVEKAMEANHRRPASVYKDPAS
notes: CcmE of Escherichia coli, monotopic membrane protein with an N-terminal transmembrane helix (modelled N2 to S32) and a periplasmic beta-barrel domain from F37; the ccmE gene stood in the construct used to produce CcmABCD; also called chaperone CcmE; source: GDN
For the molecule B3, the “stoichiometry N” value in data set [3] stood at 1.
